Assay results as given in patent US20240294608A1, “ELP FUSION PROTEINS FOR CONTROLLED AND SUSTAINED RELEASE” (ImmunoForge Co., LTD., priority 2016, published 2024).
Each block holds one molecule with its values, some of them ahead of it.

Tests used:
GLP-2 receptor [1] = target: T1, GLP-2 receptor (Homo sapiens, UniProt O95838); test: Cell-based cAMP potency assay; conditions: read-out: ECso
T1 sequence (O95838 1-553): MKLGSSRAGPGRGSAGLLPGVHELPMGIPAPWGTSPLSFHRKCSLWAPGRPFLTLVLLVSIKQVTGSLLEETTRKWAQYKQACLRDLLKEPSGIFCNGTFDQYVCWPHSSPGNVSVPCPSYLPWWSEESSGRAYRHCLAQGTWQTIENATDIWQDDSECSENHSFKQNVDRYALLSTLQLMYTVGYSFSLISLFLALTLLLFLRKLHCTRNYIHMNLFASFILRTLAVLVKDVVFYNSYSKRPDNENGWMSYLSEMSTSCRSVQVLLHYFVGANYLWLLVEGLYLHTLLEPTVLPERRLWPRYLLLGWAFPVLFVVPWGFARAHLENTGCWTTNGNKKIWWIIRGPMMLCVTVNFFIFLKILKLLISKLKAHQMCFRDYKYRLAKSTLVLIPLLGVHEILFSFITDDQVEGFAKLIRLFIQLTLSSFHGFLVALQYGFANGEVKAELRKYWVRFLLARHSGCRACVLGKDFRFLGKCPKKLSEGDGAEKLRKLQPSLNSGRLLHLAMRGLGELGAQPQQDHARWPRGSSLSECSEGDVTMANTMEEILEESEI

Male Sprague Dawley rats = test: Small intestine weight and histology after eleven-day subcutaneous dosing in rats; format: in vivo
Protocol: Dosing was as follows: Vehicle group dosed with saline daily; PE0503 Q1D dosed with PE0503 at 1.3 mg/kg once per day; PE0503 Q2D dosed with PE0503 at 5.1 mg/kg every other day; PE0503 Q4D dosed with PE0503 at 20.5 mg/kg once every four days; GLP-2(A2G) TID dosed […] with 0.1 mg/kg GLP2(A2G).
Male Sprague Dawley rats (200-220 g, n=12/group) were injected subcutaneously with PE0503 or GLP-2 (A2G) peptide over an eleven-day dosing period as shown in Table 5.
The animals were sacrificed on day 12 and a mid-line incision was made, the small intestines were removed, stretched to their maximum length and measured. The fecal material was then flushed from the lumen and the small intestine weight was recorded.

[2] = tested on: normal mice (strain FVB/nj); test: Linear growth of normal mice, daily injection for three weeks; format: in vivo; conditions: injected daily for three weeks, mice 3 weeks of age, vs saline; FIG. 3A-C
Protocol: Effect on growth was determined by measuring nose to tail length (A), nose to anus length (B), and tail length (C). The graphs show the mean change in growth versus baseline over the 3 week period.
The above constructs were injected daily in normal mice (strain FVB/nj) for three weeks. The mice were 3 weeks of age at the start of the experiment. The effect on linear growth of the mice was determined by measuring tail length, nose to anal length and nose to tail length after each week of dosing in comparison to a control group injected with normal saline. […] There was no significant effect on body weight.

GLP-2 receptor [3] = test: cell-based or functional assay

EC50 (GLP-2 receptor [1]): 1.75 nM
B1: PE0503: GLP-2 sequence with A2G mutation on the N-terminus of the ELP1-120 sequence (protein)
chain: HGDGSFSDEMNTILDNLAARDFINWLIQTKITDVPGVGVPGVGVPGGGVPGAGVPGVGVPGVGVPGVGVPGGGVPGAGVPGGGVPGVGVPGVGVPGGGVPGAGVPGVGVPGVGVPGVGVPGGGVPGAGVPGGGVPGVGVPGVGVPGGGVPGAGVPGVGVPGVGVPGVGVPGGGVPGAGVPGGGVPGVGVPGVGVPGGGVPGAGVPGVGVPGVGVPGVGVPGGGVPGAGVPGGGVPGVGVPGVGVPGGGVPGAGVPGVGVPGVGVPGVGVPGGGVPGAGVPGGGVPGVGVPGVGVPGGGVPGAGVPGVGVPGVGVPGVGVPGGGVPGAGVPGGGVPGVGVPGVGVPGGGVPGAGVPGVGVPGVGVPGVGVPGGGVPGAGVPGGGVPGVGVPGVGVPGGGVPGAGVPGVGVPGVGVPGVGVPGGGVPGAGVPGGGVPGVGVPGVGVPGGGVPGAGVPGVGVPGVGVPGVGVPGGGVPGAGVPGGGVPGVGVPGVGVPGGGVPGAGVPGVGVPGVGVPGVGVPGGGVPGAGVPGGGVPGVGVPGVGVPGGGVPGAGVPGVGVPGVGVPGVGVPGGGVPGAGVPGGGVPGVGVPGVGVPGGGVPGAGVPGVGVPGVGVPGVGVPGGGVPGAGVPGGGVPGWP
modifications: pPE0503-GLP-2(A2G)-ELP1-120
small intestine weight (Male Sprague Dawley rats; compared to placebo, day 12, even when dosed every fourth day (Q4D), FIG. 4): highly significant increase | villus height (histological analysis of sections of the small intestine) (Male Sprague Dawley rats; compared to vehicle (saline)): clear increase

B2: PE9306: CNP37 on N-terminus of ELP1-120 with Cathepsin K site 1 (Arg-Lys-Pro-Arg/Gly); SEQ ID NOs: 125 & 126 (protein)
chain: QEHPNARKYKGANKKGLSKGCFGLKLDRIGSMSGLGCRKPRGVPGVGVPGVGVPGGGVPGAGVPGVGVPGVGVPGVGVPGGGVPGAGVPGGGVPGVGVPGVGVPGGGVPGAGVPGVGVPGVGVPGVGVPGGGVPGAGVPGGGVPGVGVPGVGVPGGGVPGAGVPGVGVPGVGVPGVGVPGGGVPGAGVPGGGVPGVGVPGVGVPGGGVPGAGVPGVGVPGVGVPGVGVPGGGVPGAGVPGGGVPGVGVPGVGVPGGGVPGAGVPGVGVPGVGVPGVGVPGGGVPGAGVPGGGVPGVGVPGVGVPGGGVPGAGVPGVGVPGVGVPGVGVPGGGVPGAGVPGGGVPGVGVPGVGVPGGGVPGAGVPGVGVPGVGVPGVGVPGGGVPGAGVPGGGVPGVGVPGVGVPGGGVPGAGVPGVGVPGVGVPGVGVPGGGVPGAGVPGGGVPGVGVPGVGVPGGGVPGAGVPGVGVPGVGVPGVGVPGGGVPGAGVPGGGVPGVGVPGVGVPGGGVPGAGVPGVGVPGVGVPGVGVPGGGVPGAGVPGGGVPGVGVPGVGVPGGGVPGAGVPGVGVPGVGVPGVGVPGGGVPGAGVPGGGVPGVGVPGVGVPGGGVPGAGVPGVGVPGVGVPGVGVPGGGVPGAGVPGGGVPGWP
modifications: CNP37 CatK ELP1-120 fusion PE9306
rate of linear growth (tail length, nose to anal length, nose to tail length) [2]: faster rate of linear growth

EC50, cell-based cAMP potency assay (GLP-2 receptor [3]): 1.75 nM
Molecule: HGDGSFSDEMNTILDNLAARDFINWLIQTKITD (ligand, part only; not given: ELP carrier, part only) [PE0503]
